# Experimental data published in the Immune Epitope Database (IEDB).
# Tests used:
# HLA-C*12:03 = test: IEDB peptide-MHC binding, purified MHC/direct/fluorescence; filed as Kd, often an IC50 or EC50 that approximates it; ≥ and ≤ were set here for values at or beyond the usual limits of such assays; conditions: source organism: Leishmania donovani
# HLA-B*45:06 = test: IEDB peptide-MHC binding, purified MHC/competitive/fluorescence; filed as Kd, often an IC50 or EC50 that approximates it; ≥ and ≤ were set here for values at or beyond the usual limits of such assays; conditions: source organism: Mycobacterium tuberculosis H37Ra
# HLA-B*51:01 = test: as above; conditions: source organism: Mycobacterium tuberculosis H37Ra
# HLA-B*15:42 = test: as above; conditions: source organism: Mycobacterium tuberculosis H37Ra
# HLA-B*83:01 = test: as above; conditions: source organism: Mycobacterium tuberculosis H37Ra
# HLA-B*44:02 = test: IEDB peptide-MHC binding, purified MHC/direct/fluorescence; filed as Kd, often an IC50 or EC50 that approximates it; ≥ and ≤ were set here for values at or beyond the usual limits of such assays; conditions: source organism: Mycobacterium tuberculosis C
# HLA-A*03:01 = test: as above; conditions: source organism: Mycobacterium tuberculosis C
# HLA-B*40:01 = test: as above; conditions: source organism: Mycobacterium tuberculosis C
# HLA-C*05:01 = test: as above
# HLA-A*31:01 = test: as above; conditions: source organism: Mycobacterium tuberculosis C
# HLA-A*02:01 = test: as above; conditions: source organism: Mycobacterium tuberculosis C
# HLA-A*29:02 = test: as above; conditions: source organism: Mycobacterium tuberculosis C
# HLA-B*08:01 = test: as above; conditions: source organism: Mycobacterium tuberculosis C
# HLA-B*57:01 [1] = test: as above; conditions: source organism: Mycobacterium tuberculosis C
# HLA-B*15:01 = test: as above; conditions: source organism: Mycobacterium tuberculosis C
# HLA-A*11:01 = test: as above; conditions: source organism: Mycobacterium tuberculosis C
# HLA-B*27:05 = test: as above; conditions: source organism: Mycobacterium tuberculosis C
# HLA-B*48:01 = test: as above; conditions: source organism: Mycobacterium tuberculosis C
# HLA-A*01:01 = test: as above; conditions: source organism: Mycobacterium tuberculosis C
# HLA-B*46:01 = test: as above; conditions: source organism: Mycobacterium tuberculosis C
# HLA-B*58:01 [2] = test: as above; conditions: source organism: Mycobacterium tuberculosis C
# HLA-B*57:01 [3] = test: IEDB peptide-MHC binding, purified MHC/competitive/radioactivity; filed as Kd, often an IC50 or EC50 that approximates it; ≥ and ≤ were set here for values at or beyond the usual limits of such assays
# HLA-B*58:01 [4] = test: as above
# HLA-A*24:03 = test: IEDB peptide-MHC binding, purified MHC/direct/fluorescence; filed as Kd, often an IC50 or EC50 that approximates it; ≥ and ≤ were set here for values at or beyond the usual limits of such assays; conditions: source organism: Mycobacterium tuberculosis
# HLA-B*35:01 = test: IEDB peptide-MHC binding, purified MHC/competitive/radioactivity; filed as Kd, often an IC50 or EC50 that approximates it; ≥ and ≤ were set here for values at or beyond the usual limits of such assays; conditions: source organism: Dengue virus 4 Philippines/H241/1956
# HLA-B*53:01 = test: as above; conditions: source organism: Dengue virus 4 Philippines/H241/1956
# [5] = source organism: Dengue virus 1 Brazil/97-11/1997
# [6] = source organism: Dengue virus 4 Philippines/H241/1956
sequence,measurement,setting,value
AMAGNPVVI,Kd,HLA-C*12:03,0.727 µM
FPRYPLNVL,Kd,HLA-B*45:06,≥ 5 µM
same,Kd,HLA-B*51:01,≥ 20 µM
same,Kd,HLA-B*15:42,≥ 5 µM
same,Kd,HLA-B*83:01,2.65 µM
same,Kd,HLA-B*44:02,≥ 20 µM
same,Kd,HLA-A*03:01,≥ 20 µM
same,Kd,HLA-B*40:01,≥ 20 µM
same,Kd,HLA-C*05:01; source organism: Mycobacterium tuberculosis H37Ra,≥ 20 µM
same,Kd,HLA-A*31:01,≥ 20 µM
same,Kd,HLA-A*02:01,≥ 20 µM
same,Kd,HLA-A*29:02,≥ 20 µM
same,Kd,HLA-B*08:01,1.04 µM
same,Kd,HLA-B*57:01 [1],≥ 20 µM
same,Kd,HLA-B*15:01,≥ 20 µM
same,Kd,HLA-A*11:01,≥ 20 µM
same,Kd,HLA-B*27:05,≥ 20 µM
same,Kd,HLA-B*48:01,≥ 20 µM
same,Kd,HLA-A*01:01,≥ 20 µM
same,Kd,HLA-B*46:01,≥ 20 µM
same,Kd,HLA-B*58:01 [2],≥ 20 µM
KTSAGVNMCT,Kd,HLA-B*57:01 [3]; [5],1.13 µM
same,Kd,HLA-B*58:01 [4]; [5],4.52 µM
LYDAVAALF,Kd,HLA-C*05:01; source organism: Mycobacterium tuberculosis C,0.073 µM
same,Kd,HLA-A*24:03,≤ 0.0001 µM
MAILGETAW,Kd,HLA-B*35:01,0.102 µM
same,Kd,HLA-B*57:01 [3]; [6],0.0235 µM
same,Kd,HLA-B*53:01,0.00705 µM
same,Kd,HLA-B*58:01 [4]; [6],0.00347 µM
